Consider four molecules from patent US20260241018A1 (BIOCYTOGEN PHARMACEUTICALS BEIJING, published 2026).

For test [1], the target named is T1, dog 5T4 expressed on CHO-S cells (CHO-d5T4 cells) (dog).
T1 chain: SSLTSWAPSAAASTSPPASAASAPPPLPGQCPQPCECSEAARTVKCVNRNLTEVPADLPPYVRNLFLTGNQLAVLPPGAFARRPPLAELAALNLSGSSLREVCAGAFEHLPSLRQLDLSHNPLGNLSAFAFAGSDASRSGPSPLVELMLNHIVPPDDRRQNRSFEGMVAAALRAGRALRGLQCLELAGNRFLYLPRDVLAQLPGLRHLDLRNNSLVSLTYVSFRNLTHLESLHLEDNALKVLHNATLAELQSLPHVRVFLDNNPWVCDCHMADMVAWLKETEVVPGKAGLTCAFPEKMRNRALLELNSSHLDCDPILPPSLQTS
Put plainly: flow cytometry, CHO-d5T4 cells. The procedure: (§1) CHO-h5T4 cells, CHO-m5T4 cells, CHO-fas5T4 cells or CHO-d5T4 cells were transferred to a 96-well plate at a density of 2×10⁵ cells/well respectively. The anti-5T4 antibodies were added to the 96-well plate, and incubated at 4° C. for 30 min. Then, the cells were incubated with the secondary antibody anti-hlgG-Fc-Alex Flour 647 (RL1-H) (Jackson ImmunoResearch Laboratories, Inc., Cat #: 109-606-170) at 4° C. in the dark for 15 minutes before flow cytometry analysis.
(A flow cytometer gives signals particle by particle.)

Test [2] has as its target T2, human 5T4 expressed on CHO-S cells (CHO-h5T4 cells) (human, UniProt Q13641 32-355).
T2 sequence: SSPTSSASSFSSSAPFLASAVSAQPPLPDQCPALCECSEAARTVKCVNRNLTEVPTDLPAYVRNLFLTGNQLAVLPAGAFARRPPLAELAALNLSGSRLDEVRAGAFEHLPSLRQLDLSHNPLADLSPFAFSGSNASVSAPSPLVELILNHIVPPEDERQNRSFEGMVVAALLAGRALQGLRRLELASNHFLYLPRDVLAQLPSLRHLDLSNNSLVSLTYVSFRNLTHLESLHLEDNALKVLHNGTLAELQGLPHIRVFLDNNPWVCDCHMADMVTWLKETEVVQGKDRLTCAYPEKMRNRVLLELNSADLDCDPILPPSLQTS
The experiment in a line: flow cytometry, CHO-h5T4 cells. The procedure:
as §1

Test [3] concerns the target T3, mouse 5T4 expressed on CHO-S cells (CHO-m5T4 cells) (mouse, UniProt Q9Z0L0 32-361).
T3 sequence: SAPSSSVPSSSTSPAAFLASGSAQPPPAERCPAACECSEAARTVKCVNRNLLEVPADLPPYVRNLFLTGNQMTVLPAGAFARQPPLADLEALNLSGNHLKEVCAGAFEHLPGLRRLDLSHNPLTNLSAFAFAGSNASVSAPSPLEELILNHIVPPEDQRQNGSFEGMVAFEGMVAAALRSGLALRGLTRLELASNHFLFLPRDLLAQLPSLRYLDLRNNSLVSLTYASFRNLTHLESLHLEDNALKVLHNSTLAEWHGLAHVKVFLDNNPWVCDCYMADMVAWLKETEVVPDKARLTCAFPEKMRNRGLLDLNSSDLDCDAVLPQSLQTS
Put plainly: flow cytometry, CHO-m5T4 cells. The procedure:
as §1

Test [4] has as its target T4, monkey (Macaca fascicularis) 5T4 expressed on CHO-S cells (CHO-fas5T4 cells) (monkey (Macaca fascicularis), UniProt Q4R8Y9 35-355).
T4 construct: also called monkey 5T4
T4 sequence: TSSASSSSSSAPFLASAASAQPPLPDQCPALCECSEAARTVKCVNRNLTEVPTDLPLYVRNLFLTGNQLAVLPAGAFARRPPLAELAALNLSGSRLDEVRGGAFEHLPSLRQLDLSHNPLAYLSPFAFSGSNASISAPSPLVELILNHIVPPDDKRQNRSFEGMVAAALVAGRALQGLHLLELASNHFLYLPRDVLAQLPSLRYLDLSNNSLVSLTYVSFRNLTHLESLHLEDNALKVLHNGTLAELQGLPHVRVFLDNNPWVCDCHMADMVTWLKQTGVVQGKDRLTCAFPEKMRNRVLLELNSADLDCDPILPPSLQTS
Put plainly: flow cytometry, CHO-fas5T4 cells. The procedure:
as §1

For test [5], the target named is T5, His-tagged 5T4 protein of human (h5T4, ACRO Biosystems Inc., Cat #: TPG-H52E5) (human, UniProt Q13641 32-355).
T5 construct: Bought protein; not shown: His tag
T5 sequence (looked up): T2 sequence
The experiment in a line: SPR (Biacore 8K), antibody captured on Protein A chip, His-tagged 5T4 as analyte. The procedure: (§2) Purified anti-5T4 antibodies were diluted to 2 μg/mL and then injected into the Biacore™ 8K biosensor at 10 μL/min for about 50 seconds to achieve a desired protein density (e.g., about 50 response units (RU)). His-tagged 5T4 protein at a concentration of 200 nM was then injected at 30 μL/min for 180 seconds. Dissociation was monitored for 400 seconds. The chip was regenerated after the last injection of each titration with Glycine (pH 2.0), 30 μL/min for 30 seconds. For ISO control, an antibody targeting an irrelevant target protein was used.
(§3) As a person of ordinary skill in the art would understand, the same method with appropriate adjustments for parameters (e.g., antibody concentration) was performed for each tested antibody.
On the technique in general: Surface plasmon resonance follows binding to a sensor surface in real time, without labels.

The target of test [6] is T6, His-tagged 5T4 protein of monkey (fas5T4, ACRO Biosystems Inc., Cat #: TPG-C52H3) (monkey, UniProt Q4R8Y9 35-355).
T6 construct: Bought protein
T6 sequence: T4 sequence
Described as above. The procedure: as §2, §3

The target of test [7] is T7, h5T4-His protein (human, UniProt Q13641 32-355, limits assumed).
T7 construct: also called His-tagged human 5T4 protein; not shown: His tag
T7 sequence (looked up): T2 sequence
The experiment in a line: epitope binding assay, h5T4-His captured; binder = analyte 2; competitor (analyte 1): 31G4. The procedure:
(§4) Epitope binding assays were performed using ForteBio Octet system to determine whether two anti-5T4 antibodies target the same or overlapping epitopes. 1×HBS-EP+buffer (10 mM 4-(2-hydroxyethyl)-1-piperazineethanesulfonic acid (HEPES), 150 mM NaCl, 3 mM ethylenediaminetetraacetic acid (EDTA) and 0.05% P20, pH7.4) diluted from HBS-EP+buffer (10×) was used as the running buffer throughout the experiment. About 50 RU of h5T4-His protein was captured at a flow rate of 10 μL/min, and 200 nM of the tested antibody was injected at a flow rate of 30 μL/min to bind the ligand. Another comparison antibody was injected under the same conditions to determine whether the binding of different antibodies interfered with each other. The binding time was 180 s for each antibody.
(§5) The binding value of each antibody was obtained using Data Analysis HT 12.0. To quantify the interference of one antibody binding to another, a binding ratio was calculated to compare each pair of antibodies. The binding ratio is defined as the binding value of the second antibody (analyte 2), divided by the binding value of the first antibody (analyte 1). […] In general, antibody pairs that interfere with each other have the same or overlapping epitopes.

The target in test [8] is T7, h5T4-His protein. Put plainly: epitope binding assay, h5T4-His captured; binder = analyte 2; competitor (analyte 1): 32E3. The procedure: as §4, §5
Test [9] deals with T7, h5T4-His protein. Put plainly: epitope binding assay, h5T4-His captured; binder = analyte 2; competitor (analyte 1): 32G1. The procedure:
as §4, §5

Test [10] deals with T7, h5T4-His protein. Put plainly: epitope binding assay, h5T4-His captured; binder = analyte 2; competitor (analyte 1): 32G8. The procedure: as §4, §5
Test [11] addresses T7, h5T4-His protein. Put plainly: epitope binding assay, h5T4-His captured; binder = analyte 2; competitor (analyte 1): 35C6. The procedure:
as §4, §5

Test [12] concerns the target T7, h5T4-His protein. The experiment in a line: epitope binding assay, h5T4-His captured; binder = analyte 2; competitor (analyte 1): 35B12. The procedure:
as §4, §5

Test [13] deals with T8, His-tagged 5T4 protein of mouse (m5T4, ACRO Biosystems Inc., Cat #: TPG-M52H3) (mouse, UniProt Q9Z0L0 32-361, limits assumed).
T8 construct: Bought protein; not shown: His tag
T8 sequence (looked up): T3 sequence
Put plainly: SPR (Biacore 8K), antibody captured on Protein A chip, His-tagged 5T4 as analyte. The procedure:
as §2, §3

B1: 32E3 (antibody, V domains shown)
VH: QVQLVQSGGGLVQPGGSLRLSCVVSGFTVSSDYMSWVRQAPGKGLEWVSIIYSGGSTFYADSVKGRFTISRDNSKNTLFLQMNSLRAEDTAVYYCARDRDCHGWGSYYNRWFDPWGQGTLVTVSS
VL: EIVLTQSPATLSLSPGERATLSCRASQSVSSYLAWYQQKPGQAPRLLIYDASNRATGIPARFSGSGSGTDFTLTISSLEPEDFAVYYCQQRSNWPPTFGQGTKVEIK
notes: also called anti-5T4 antibody 32E3
The term Kd denotes a measure of binding affinity in units of concentration. The term koff denotes the first-order rate constant of dissociation. The term kon denotes the second-order rate constant of association. For B1, the “Percentage of Positive Cells” value in test [1] was 53.7%; in [2], 65.8%; in [3] it was 52.2%; in [4], 51.5%. Besides, the Kd in test [5] turned out to be 147 nM; in test [6], 116 nM. Also, the off-rate (koff) came out at 0.00661 s⁻¹ in [5] and 0.00297 s⁻¹ in test [6]. Further, the association rate constant (kon) turned out to be 44900 M⁻¹ s⁻¹ in [5] and 25600 M⁻¹ s⁻¹ in test [6]. Moreover, the binding ratio is 0.8 in [7]; -0.01 in test [8]; 0.83 in test [9]; -0.06 in test [10]; 0.96 in test [11]; 0.97 in test [12].

B2: 35C6 (antibody, V domains shown)
VH: QVQLVQSGGGLVQPGGSLRLSCAASGFTFSRNAMSWVRQAPGKGLEWVSAISGSGGSTHDADSVKGRFTISRDNSKNTLYLEMNSLRAEDTAVYYCAKDGYSSLWDYHYYGMDVWGQGTTVTVSS
VL: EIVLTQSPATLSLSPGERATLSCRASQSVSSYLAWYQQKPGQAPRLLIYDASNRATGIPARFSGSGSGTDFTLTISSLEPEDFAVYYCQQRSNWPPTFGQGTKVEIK
notes: also called anti-5T4 antibody 35C6
As to B2, the “Percentage of Positive Cells” value in [1] was found to be 71.1%; in test [2], 67.3%; in [3], 63.3%; in [4] it was 55.7%. Moreover, the figures for the Kd in test [5] and in test [13] were 19.2 nM and 1.31 nM, respectively. In addition, the koff in test [5] came to 0.00315 s⁻¹; in test [13] it was 0.000407 s⁻¹. The figures for the on-rate constant (kon) in [5] and in [13] were 164000 M⁻¹ s⁻¹ and 310000 M⁻¹ s⁻¹, respectively. The binding ratio in [7] was found to be 0.81; in [8], 0.93; in [9], 0.96; in test [10] it was 0.98; in [11] it was 0.02; in [12] it was 0.03.

B3: MAB2 analog-SI (antibody, V domains shown)
VH: QVQLQQPGAELVKPGASVKMSCKASGYTFTSYWITWVKQRPGQGLEWIGDIYPGSGRANYNEKFKSKATLTVDTSSSTAYMQLSSLTSEDSAVYNCARYGPLFTTVVDPNSYAMDYWGQGTSVTVSS
VL: DVLMTQTPLSLPVSLGDQASISCRSSQSIVYSNGNTYLEWYLQKPGQSPKLLIYKVSNRFSGVPDRFSGSGSGTDFTLKISRVEAEDLGVYYCFQGSHVPFTFGSGTKLEIK
notes: MAB2 is a humanized IgG1 monoclonal antibody targeting 5T4
In [5], B3 gave a Kd of 22.5 nM, a koff of 0.00292 s⁻¹ and an on-rate (kon) of 130000 M⁻¹ s⁻¹. Also, in test [6], the dissociation constant Kd was found to be 55.1 nM, the koff was found to be 0.00545 s⁻¹ and the kon was determined as 99000 M⁻¹ s⁻¹. In addition, the binding result in [13] is given as “no binding (tested: 200 nM)”.

B4: 31G4 (antibody, V domains shown)
VH: QVQLVQSGGGLVQPGGSLRLSCAASGFTFKSYWMHWVRQAPGKGLEWVSRINFDGSSITYADSVKGRFTISRDNAKNTLYLQMNSLSAEDTAVYYCARPLTYYEILTGFSQYFDFWGQGTLVTVSS
VL: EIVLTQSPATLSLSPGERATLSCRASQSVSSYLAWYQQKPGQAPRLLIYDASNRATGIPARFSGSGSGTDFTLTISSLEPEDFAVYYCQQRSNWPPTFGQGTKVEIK
notes: also called anti-5T4 antibody 31G4
With B4, the “Percentage of Positive Cells” value in test [1] was 1.1%; in test [2] it was 79.3%; in [3], 1.4%; in test [4], 58.8%. In addition, the values for the binding result in test [1], in test [3] and in test [13] were “no binding”, “no binding” and “no binding (tested: 200 nM)”, respectively. The Kd in test [5] amounted to 2.68 nM; in test [6], 10.1 nM. In addition, the figures for the koff in test [5] and in test [6] were 0.000397 s⁻¹ and 0.00101 s⁻¹, respectively. Further, the kon in [5] was found to be 148000 M⁻¹ s⁻¹; in test [6] it was 100000 M⁻¹ s⁻¹. Moreover, the binding ratio in test [7] turned out to be 0.04; in test [8], 1.01; in test [9], 1.04; in test [10], 1.01; in test [11], 1.05; in test [12], 1.01.
